Reference: US20240002500A1 (GUANGDONG FAPON BIOPHARMA, published 2024)

Assays:
[1] = molecular target: T1, human Tigit extracellular domain recombinant protein hTigit-his (Acrobiosystem, Cat.TIT-H2H3) (human, UniProt Q495A1 22-141); assay: BLI epitope binning (ForteBIO QKe), hTigit-his on anti-Penta-HIS sensor; competitor R0300
T1 construct: extracellular domain; Bought; not shown: his tag
T1 sequence (looked up): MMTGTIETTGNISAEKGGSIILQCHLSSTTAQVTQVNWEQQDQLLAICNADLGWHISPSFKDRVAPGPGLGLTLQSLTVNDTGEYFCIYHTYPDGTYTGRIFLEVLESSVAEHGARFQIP
Description: (§1) Epitope competition analysis was performed on an anti-human TIGIT antibody with an MD ForteBIO QKe platform. An experimental method included: a human Tigit extracellular domain recombinant protein hTigit-his (Acrobiosystem, Cat.TIT-H2H3, lot-1336-76GF1-F9) carrying a his tag was diluted with an equilibration buffer (1×PBS+0.02% Tween 20), until the final concentration was 1.5 μg/ml. The anti-human Tigit antibody was diluted with the equilibration buffer (1×PBS+0.02% Tween 20), the final concentration being 5 μg/ml. After an anti-Penta-HIS biosensor (ForteBIO, Cat. 18-5122) was fully hydrated, first the hTigit-his recombinant protein was solidified for 180 seconds, then equilibrated for 30 seconds, and bound to the first anti-human Tigit antibody for 180 seconds, then equilibrated for 30 seconds, and then bound to the second anti-human Tigit antibody, binding time being 300 seconds. The whole reaction was performed at 25° C. and 1000 rpm; and finally, Octet analysis software was used to perform epitope binning analysis.

[2] = molecular target: T1, human Tigit extracellular domain …; assay: BLI epitope binning (ForteBIO QKe), hTigit-his on anti-Penta-HIS sensor; competitor R0223
Description: as §1

B1: Tigit-18 (antibody, V domains shown)
VH: QVQLQQPGAELVRPGASVKLSCKASGYSFTSYWMNWVKQRPGQGHEWIGMIHLSNSETRLNQNFLDKATLTVDKSSSTVYLQLSSPTSEDSAVYYCARERDYYGSSYFDYWGQGTTLTVSS
VL: DIVMTQSPASLVVSLGQRATISCRTSQSVSTSSYSYMHWYQQKPGQPPKLLIKNASNLESGVPARFSASGSGTDFTLNIHPVEEEDAATYYCQHSWEIPRTFGGGTKLEIK
B1 was tested, and the “epitope binning signal (name and unit not given)” value [1] was 0.544 and the “epitope binning signal (name and unit not given)” value [2] was 0.0383.
